Results reported in the DeepSol protein solubility set.

Experiment: soluble on expression in E. coli; label from the status in PepcDB or PDB records

Sequence | soluble on expression in E. coli
MTIYVVTPTYARLVQKAELVRLSQTLSLVPRLHWLLVEDAEGPTPLVSGLLAASGLLFTHLVVLTPKAQRLREGEPGWVHPRGVEQRNKALDWLRGRGGAVGGEKDPPPPGTQGVVYFADDDNTYSRELFEEMRWTRGVSVWPVGLVGGLRFEGPQVQDGRVVGFHTAWEPSRPFPVDMAGFAVALPLLLDKPNAQFDSTAPRGHLESSLLSHLVDPKDLEPRAANCTRVLVWHTRTEKPKMKQEEQLQRQGRGSDPAIEV | soluble
MTKDRQIKKTKTAIYSAFIALLQKKEYSKITVRDMITLANVGRSTFYAHYESKEMLLKELCEELFHHLFRQKRNVTFEDYLVHILKHFEQNKDSIATLLLSNDPYFLLRFKNELEHDVYPNLRCKYIDKTTIPEVFLKQFVLSSFIETLKWWLHQRQRMSANELLKYYLELIK | soluble
MTKHARFSLLPSFIIFSAALLAGCNDQGDTQAHAGEPQVTVHVVETAPLAVTTELPGRTSAFRIAEVRPQVSGIVLKRNFTEGSDVEAGQSLYQIDPATYQADYDSAKGELAKSEAAAAIAHLTVKRYVPLVGTKYISQQEYDQAIADARQADAAVVAAKAAVESARINLAYTKVTSPISGRIGKSNVTEGALVTNGQSTELATVQQLDPIYVDVTQSSNDFMRLKQSVEQGNLHKDSASSTVQLVMENGQVYPIKGTLQFSDVTVDESTGSITLRAVFPNPQHSLLPGMFVRARIDEGVQPNAILVPQQGVTRTPRGDAMVMVVNDKSQVEARNVVAAQAIGDKWLISEGLKPGDKVIVSGLQKARPGVQVKATTDAPAAKTAQ | not soluble
MTKITYKVASEHPFPADAAAAAASLAAYEALDDVTKARVDQMVDWIMKNCLWQFHSRAWDRKRQNEGILGIAAKLLAGEPFTPETPEDRCYWVDSVTLQRAYLATCPWLATMSKGDIRALMKELHARVDYLTVTGSLNEELTDLHYLEHHHHHH | not soluble
MTKIWTRDGFAENDPWVIETEEVKATGEQKPVLPLADFLVRAAESNDIGLGVLISPADDVNRLEPYLDRIDLVAVSFPAFNDGRGFSHASLLRSRLGFAGEVRAVGDVLIDQVPLMLRTGFTSFAVTNETAIRRLSENRLPEITVYYQPTALPATGGEAYSWRRRAAQ | not soluble
MTKKELRAQIRQRNREMLAAENRERWSQSIIERIRRLDIFADAKRIGLYHALPDEPDLTGLLREYVQTKQLFIPRVEGDDIAFYAYTGEADLEAEGAYGIAEPTADAATAILPSSLDLLLVPGVAFDRKGSRMGRGKGYYDRFLPATQVRLIGVTFSYRLLEELPTDPWDRPMDGVITESETLFCLEHHHHHH | soluble
MTKKKVYNKRKRKEASIRVLEAIREKRKQQLAENARLEAEQAEQDVAPEPIDVQDPVINAGNIVEDAEPLNVNPSPPQPRKFNFRVANLEIARQAKISQNLMKTSETASTSSPVRQQVKTEIVPRVSQRTIVKTQALPRVNAPVLSSVPAKNPLPPKFVYINTAGLKRKRDDDKNTPSTSNSITLNPSSRGDQTQFIVHLQRTIERLEKEKAALTEKLTMREDEIKVFSVEFVNIQKENVKLMKENKAKESQISNQSIQVRNSWKFADLFKKELQKSRKDVSEVKWKIDKIEKKVGIKKPTPRKKPDVKLINPEDISLMSDRTQDGEDSSDFGSPLAKYLKPDQPSTSSACYGKPFYFESTSSSSRKPITASPGPPGRTQISDQLNTGEVRYVVNSGKPFNFSSESNSRNLKLIPGYIKRPEFRYIKPEGFTSASYKAQSEGMSSFLKTGSSATPENSKKSAHFDMPDISSTPYKSHVVVESDEMNSSSSTIGGFESEKKDNGALGSQKSPMPDIATALHNIFDSKEVQSSSSTTGSSAPPENSKKSDHFDMPDISSTLYRSRVEPISSSSSGSTSTSAPRYVPKPIAQPARYAIPSPGALNALRRPPEWKGQRRHAPSYVKSRESVTFRGCSRFPVTSPHFAKAHLEPVTDGKDDSKIVKYRFVPKRPDFDGEREHKK | not soluble
MTKKVGIVDTTFARVDMASIAIKKLKELSPNIKIIRKTVPGIKDLPVACKKLLEEEGCDIVMALGMPGKAEKDKVCAHEASLGLMLAQLMTNKHIIEVFVHEDEAKDDKELDWLAKRRAEEHAENVYYLLFKPEYLTRMAGKGLRQGFEDAGPARE | soluble
MTKKYLKVDVVSPLGSVFKGEADMVSLRGSAGEMGIAYGHTELLSTLPAGVVNVRKDQHTDVLYVSGGIVEVTPTRVTIMVDDMERAENLNQAEAEKARARAKEVLKNPDASKLDIEAANKRLKEADARLKALNSSNGLYYSKDD | not soluble
MTKLVIDTVGPATSVQDAGRHGAQRYGLPPSGAMDRLSLAAANVLVGNSAFAAAIELGPLGAKLSVRDGAVRLALTGAERPAALDGQPLAFNESFTLAEGQILTLGVARGGVFSYLGIEGGVGGEPMFGSLAVNARAGLGSPYPRPLQAGDAIAVKSAAPSVERRLDLPEQQDTPIRVVLGPQDDEFGAAVEIFLTGEWTMSATSDRMGYRLDGPQISHLHGHNIVSDGTVDGSIQVPGSGQPIVLMPDRGTSGGYPKIATVISADLGRLAQRQPGRPFRFQAVSVEEAQDAYRTMAKLIRSLPDLLRDAQHAIIDLDALLSANVAGTAIDALAAELEHHHHHH | not soluble
MTKLVKINYPNIDEDLYYVKLENGLTVYFIKKIGFLEKTAMLTVGFGSLDNKLTVDDESRDAPAGIAHFLEHKLFEDESGGDISLKFTQLGAETNAFTTFNQTSFFFSTASKFQENLELLQYFVLSANITDESVSREKKIIGQEIDMYQDDADYRAYSGILQNLFPKTSLANDIAGSKASIQKITKILLETHHTYFYQPTNMSLFIVGDIDIDETFLAIQRFQTTLSYPDRKRVTVDPLHYYPVIKSSSVDMDVTTAKLVVGFRGYLTLTQHSLLTYRIALKLFLSMLIGWTSKIYHTLYEDGKIDDSFDVDVEIHHNFQFVLISLDTPEPIAMSNYIRQKLATIKISKEFTNEHLNLLKKEMYGDFIQSLDSIEHLTHQFSLYLSDSDKETYFDIPKIIERLTLKDVVTIGKAFFEKADASDFTVFPK | not soluble
MTKPAKIGVLLANLGTPDSPTPKSISRYLWQFLTDPRVVDLPRCKWYPLLKAIILPLRSKRIAKNYQAIWTEQGSPLLAISRQQKDALQAYLDNQNIDTQVEIAMTYGNPSMQSAVKNLLKNQVERIIVLPLYPQYSSSTTGAVFDAFANALKEERGLLPFDFIHSYHIDENYINALADSIKVRLKSDEFLLFSYHGIPLRYEKMGDYYREHCKQTTIAVVNKLGLTENQWRMTFQSRFGREEWLQPYTDKFLESAAAQNIQKIAVICPGFSVDCLETIEEIDEENRENFLNNGGQSYQYIPALNVEHAHIEMMGKLILEKLT | not soluble
MTKPFAPASARNRDPILSVLQRYFADRQHVLEIGAGTGQHAVHFAAAMPWLRWQASDHPDHLPGMRQWLDEAALPNTPPPVALQAVLTPAPGLAPAPPLPPVQAGTPAGYDAIYSANTLHIMGWPQVQALFAGLPAVMAPQAVLVIYGPFNRDGEFTSDSNRDFDAMLRARDAASGIRDAAEVDALAAQVGLQLVDDVDMPANNRCRVWQRALEHHHHHH | soluble
MTKPLNTTQAVIEWVNNTRRYATRLDDEADALLAQLTLAAADESALNAACASHGCVGLYGYAQSAKAHLLTTLCGNENGKLEIITPDRDYDYFSHINPGHAPANMAIRFTRDIFSNESGWPLRLRLISEAELVQIFIAWTSSSPVCRQVEKSIITSRLEKWQSLRQPQPVPGVTAEEVATIASFWRSCLPSARQHIDDATWQHFASLLPALDLTTRAHAWALLWGEQPEITQQWLALAHMLQQTGHAGELAAPLSLLVDHFGLPAENFLTQMALTANDTQSDVVVHPVKEGRLLNAVSLSLDSLALLTRELVLSVENNVLDNVDLLDIPVAPDSHPHPLWRAKLGWMLAHYRQQVQPDVLVICNALASRSQTSTAAHHLLEWVNATQPQHESALPGVVWAITPQDARFATQQNLDEAVQQLMGKPGVHWGTLQALDKHSMQRLVEWLSQATSAPQRQARLQALREQLRGRVRDLLPMFDDARLPVETVIRRLQAQAARHGDLLAGLLPPVQNFEALLSTRQSREEQVCGLFNDAIDLFADEPTRASASEGHETGYQAHKMWINHLRQWAHCRDNAQRLGLEPQMLNAVAEILITASYRLGLPQQLQKTMQREEVSGAQLHAIIGNFIAWLGYANIEEAQRPASRVQKGAAIFAATPRSTMLRLTKLDEQPVHAASRYVYDWLVALYTLANENAGYRHPQDVTDVDRAQLIALIA | soluble
